# Source: patent publication US20120328623A1 (Kyowa Kirin, published 2012)
# B1: anti-human erbB3 monoclonal antibody 12511 (antibody, V domains shown)
# VH: QIQLQQSGPELVNPGASVKISCKPSGYTFTDYYINWVKQRPGQGLEWIGWIHPGGGYTKYNEKFRGKATVTVDTSANTVYMQLSSLTSDDSAVYFCARRDYGDYGFAYWGQGTLVTVSA
# VL: DIVLTQSPASLAVSLGQRATISCRVSESVDSYGNSFMHWYQQKPGQPPKLLIYRASNLESGIPDRFSGSVSRTDFTLTINPVEPDDVATYYCQQTNEDPPTFGGGTKLEIK
# Molecular target: T1, GST fusion protein wherein the extracellular domain of mouse erbB3 is fused to GST (mouse, UniProt Q61526 20-641)
# T1 construct: also called merbB3-GST; merbB3; not shown: glutathione S-transferase (GST)
# Test: binding ELISA, GST fusion captured by anti-GST
# Method: anti-Glutathione-Transferase-Schistsoma-japonicum (Goat) (manufactured by Rockland Immunochemicals Inc., ca. No. 16979) (hereinbelow, described as “anti-GST”) prepared at 1 μg/mL by using a 50 mM carbonate buffer (pH 9) (hereinbelow, described as a “coating buffer”) was added to Maxisorp plate (NUNC; ca. No. 442404) at 50 μL/well and immobilized by incubation at 37° C. for an hour (or 4° C., ON).
# After the buffer was discarded, a blocking reagent (SuperBlock® Blocking Buffer, manufactured by PIERCE) was added to the respective wells at 250 μL to 300 μL/well, followed by incubation at room temperature for 5 to 10 minutes for blocking After the blocking reagent was discarded, the herbB3-GST fusion protein, the merbB3-GST fusion protein, the hD1/mD234 fusion protein, the hD12/mD34 fusion protein, and the hD123/mD4 fusion protein which were diluted at 5 μg/mL with Tris-buffered saline (hereinbelow, described as an “assay diluent”) containing 10% Block Ace® (manufactured by Dainippon Sumitomo Pharma Co., Ltd.) and 0.1% Tween 20 were added respectively to the plates of the respective antigens at 50 μL/well, and immobilized by incubation at room temperature for an hour.
# An absorbance at a wavelength of 450 nm (reference wavelength of 570 nm) was measured using a microplate reader (MTP-300; manufactured by CORONA […] Co., Ltd.).
# T1 sequence (Q61526 20-641): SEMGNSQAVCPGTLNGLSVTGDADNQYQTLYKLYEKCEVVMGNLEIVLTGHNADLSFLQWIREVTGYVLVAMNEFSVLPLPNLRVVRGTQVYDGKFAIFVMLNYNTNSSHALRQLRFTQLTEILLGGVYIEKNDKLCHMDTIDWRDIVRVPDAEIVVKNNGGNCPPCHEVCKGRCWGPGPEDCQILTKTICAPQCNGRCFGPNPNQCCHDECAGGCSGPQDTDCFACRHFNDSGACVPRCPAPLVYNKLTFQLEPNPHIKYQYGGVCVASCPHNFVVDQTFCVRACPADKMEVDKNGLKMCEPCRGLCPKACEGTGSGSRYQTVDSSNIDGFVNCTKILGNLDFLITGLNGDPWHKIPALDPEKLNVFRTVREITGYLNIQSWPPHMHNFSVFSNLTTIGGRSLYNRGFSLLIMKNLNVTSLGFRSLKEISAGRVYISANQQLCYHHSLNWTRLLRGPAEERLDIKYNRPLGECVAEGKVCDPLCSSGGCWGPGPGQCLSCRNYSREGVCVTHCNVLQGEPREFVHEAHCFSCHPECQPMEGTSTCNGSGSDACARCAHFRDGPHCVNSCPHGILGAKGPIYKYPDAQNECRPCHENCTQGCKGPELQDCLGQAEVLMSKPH
binder,measurement,value
B1,binding result,binds
